The text below walks through data of patent publication US20210275545A1 (YEDA RESEARCH AND DEVELOPMENT, published 2021).

To fix the notation:
T1: glucocorticoid receptor (GR), untagged (human, UniProt P04150 1-777)
T1 sequence (looked up): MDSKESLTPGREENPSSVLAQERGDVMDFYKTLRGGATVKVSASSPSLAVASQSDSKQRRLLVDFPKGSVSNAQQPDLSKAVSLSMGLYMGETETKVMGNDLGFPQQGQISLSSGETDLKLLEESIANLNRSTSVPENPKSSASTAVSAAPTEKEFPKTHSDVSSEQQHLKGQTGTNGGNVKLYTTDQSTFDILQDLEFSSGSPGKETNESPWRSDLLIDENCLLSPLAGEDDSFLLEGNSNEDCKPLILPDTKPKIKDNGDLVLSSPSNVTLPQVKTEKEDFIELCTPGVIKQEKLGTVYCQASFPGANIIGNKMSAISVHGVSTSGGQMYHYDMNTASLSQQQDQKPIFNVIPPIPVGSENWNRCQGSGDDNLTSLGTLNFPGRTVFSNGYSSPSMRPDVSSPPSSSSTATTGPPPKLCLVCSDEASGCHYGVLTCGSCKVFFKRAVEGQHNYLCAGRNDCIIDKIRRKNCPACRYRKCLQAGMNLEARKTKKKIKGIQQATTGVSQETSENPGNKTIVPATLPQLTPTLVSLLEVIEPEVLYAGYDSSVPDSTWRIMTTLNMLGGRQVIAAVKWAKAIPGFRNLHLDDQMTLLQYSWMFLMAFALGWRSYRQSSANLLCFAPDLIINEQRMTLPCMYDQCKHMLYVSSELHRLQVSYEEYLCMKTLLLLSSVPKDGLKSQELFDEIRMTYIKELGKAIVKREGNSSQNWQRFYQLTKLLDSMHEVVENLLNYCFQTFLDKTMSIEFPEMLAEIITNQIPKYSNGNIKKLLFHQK

T2: GR NTD+DBD-Gluc2 (NTD and DBD of GR fused to Gluc2) (human, UniProt P04150 1-486)
T2 construct: domain: NTD+DBD;range 94-169; not shown: Gaussia luciferase (Gluc), carboxyl-terminal fragment Gluc2, amino acids 94-169
T2 sequence (looked up): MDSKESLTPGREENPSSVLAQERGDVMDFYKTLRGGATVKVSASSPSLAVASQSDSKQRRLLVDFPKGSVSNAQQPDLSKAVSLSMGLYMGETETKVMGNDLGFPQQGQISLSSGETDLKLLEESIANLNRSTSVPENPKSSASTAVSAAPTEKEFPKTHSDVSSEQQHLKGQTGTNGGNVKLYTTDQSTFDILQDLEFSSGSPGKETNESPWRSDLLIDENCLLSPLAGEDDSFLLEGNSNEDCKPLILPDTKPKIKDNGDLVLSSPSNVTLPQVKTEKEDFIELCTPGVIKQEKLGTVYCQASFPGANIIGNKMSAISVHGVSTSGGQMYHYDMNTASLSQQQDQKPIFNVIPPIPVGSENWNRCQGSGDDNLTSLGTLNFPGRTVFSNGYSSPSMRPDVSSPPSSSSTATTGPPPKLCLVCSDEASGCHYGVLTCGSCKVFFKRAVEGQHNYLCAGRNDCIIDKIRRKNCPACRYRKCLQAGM

B1: GR-Gluc2 (full-length glucocorticoid receptor fused at its carboxyl terminus to Gluc2) (receptor, UniProt P04150 1-777, looked up)
chain: T1 sequence (looked up)
notes: domain: full length;range 94-169; Expressed in HEK-293/HEK-293T cells by transfection; also called Gluc2-GR; not shown: Gaussia luciferase (Gluc), carboxyl-terminal fragment Gluc2, amino acids 94-169
B2: GR NTD-Gluc2 (NTD of GR fused to Gluc2) (other, UniProt P04150 1-420, looked up, not shown: large carriers)
chain: MDSKESLTPGREENPSSVLAQERGDVMDFYKTLRGGATVKVSASSPSLAVASQSDSKQRRLLVDFPKGSVSNAQQPDLSKAVSLSMGLYMGETETKVMGNDLGFPQQGQISLSSGETDLKLLEESIANLNRSTSVPENPKSSASTAVSAAPTEKEFPKTHSDVSSEQQHLKGQTGTNGGNVKLYTTDQSTFDILQDLEFSSGSPGKETNESPWRSDLLIDENCLLSPLAGEDDSFLLEGNSNEDCKPLILPDTKPKIKDNGDLVLSSPSNVTLPQVKTEKEDFIELCTPGVIKQEKLGTVYCQASFPGANIIGNKMSAISVHGVSTSGGQMYHYDMNTASLSQQQDQKPIFNVIPPIPVGSENWNRCQGSGDDNLTSLGTLNFPGRTVFSNGYSSPSMRPDVSSPPSSSSTATTGPPPKL
notes: domain: NTD;range 94-169
B3: ERα-Gluc2 (estrogen receptor alpha fused to Gluc2) (receptor, UniProt P03372 1-595, looked up)
chain: MTMTLHTKASGMALLHQIQGNELEPLNRPQLKIPLERPLGEVYLDSSKPAVYNYPEGAAYEFNAAAAANAQVYGQTGLPYGPGSEAAAFGSNGLGGFPPLNSVSPSPLMLLHPPPQLSPFLQPHGQQVPYYLENEPSGYTVREAGPPAFYRPNSDNRRQGGRERLASTNDKGSMAMESAKETRYCAVCNDYASGYHYGVWSCEGCKAFFKRSIQGHNDYMCPATNQCTIDKNRRKSCQACRLRKCYEVGMMKGGIRKDRRGGRMLKHKRQRDDGEGRGEVGSAGDMRAANLWPSPLMIKRSKKNSLALSLTADQMVSALLDAEPPILYSEYDPTRPFSEASMMGLLTNLADRELVHMINWAKRVPGFVDLTLHDQVHLLECAWLEILMIGLVWRSMEHPGKLLFAPNLLLDRNQGKCVEGMVEIFDMLLATSSRFRMMNLQGEEFVCLKSIILLNSGVYTFLSSTLKSLEEKDHIHRVLDKITDTLIHLMAKAGLTLQQQHQRLAQLLLILSHIRHMSNKGMEHLYSMKCKNVVPLYDLLLEMLDAHRLHAPTSRGGASVEETDQSHLATAGSTSSHSLQKYYITGEAEGFPATV
notes: not shown: Gaussia luciferase (Gluc), carboxyl-terminal fragment Gluc2, amino acids 94-169
B4: FLI1, untagged (other, UniProt Q01543 1-452, looked up)
chain: MDGTIKEALSVVSDDQSLFDSAYGAAAHLPKADMTASGSPDYGQPHKINPLPPQQEWINQPVRVNVKREYDHMNGSRESPVDCSVSKCSKLVGGGESNPMNYNSYMDEKNGPPPPNMTTNERRVIVPADPTLWTQEHVRQWLEWAIKEYSLMEIDTSFFQNMDGKELCKMNKEDFLRATTLYNTEVLLSHLSYLRESSLLAYNTTSHTDQSSRLSVKEDPSYDSVRRGAWGNNMNSGLNKSPPLGGAQTISKNTEQRPQPDPYQILGPTSSRLANPGSGQIQLWQFLLELLSDSANASCITWEGTNGEFKMTDPDEVARRWGERKSKPNMNYDKLSRALRYYYDKNIMTKVHGKRYAYKFDFHGIAQALQPHPTESSMYKYPSDISYMPSYHAHQQKVNFVPPHPSSMPVTSSSFFGAASQYWTSPTGGIYPNPNVPRHPNTHVPSHLGSYY
notes: Stands for endogenous FLI1 (HEK-293T, A673) in co-immunoprecipitation and PLA, and for FLI1 from an expression vector in the reporter assays; also called endogenous FLI1

The target in assay [1] is T3, Gluc1-PU.1 (UniProt P17947-2 1-271).
T3 construct: not shown: Gaussia luciferase (Gluc), amino-terminal fragment Gluc1, amino acids 1-93
Kind of assay: PCA (split Gaussia luciferase) in HEK-293 cells, DEX 1.0 µM 60 min (FIG. 1B). The source says: EB, empty beads; C, solvent control. Images shown are representative of three biological replicates.
The resulting luminescence was normalized to the signal associated with cells treated with vehicle only.

The target of the assay “FLI1, untagged” is B4. Nature of the assay: co-immunoprecipitation with anti-Gluc antibody, immunoblot for endogenous FLI1, HEK-293 cells (FIG. 3D). The protocol: (§1) HEK-293T cells (6×10³) were seeded in each well of 96-well plates. […] Cells were lysed after 24 hours and processed for co-immunoprecipitation assays, in which the Gluc protein was immunoprecipitated using a specific antibody. […] Blots are representative of three or more biological replicates. […] Similarly, the input of recombinant proteins is shown in the middle panels of C and D. Both molecular weights and relative quantities of individual Gluc fusion proteins are shown by means of immunoblotting with an antibody to Gluc. Individual fusion proteins are identified by numbers and their molecular weights are calculated below each panel.
A general note: In western blotting, separated proteins are transferred to a membrane and probed.

Assay [2] addresses T3, Gluc1-PU.1. Kind of assay: PCA in HEK-293T cells, estradiol 10 nM 60 min (FIG. 8C). As for the experimental part:
(A) HEK-293T cells (6×10³) were seeded in 96-well plates. […] (B and C) HEK-293T cells (6×10³) were seeded in 96-well plates. […] Cells were then lysed and luminescence was determined.

The target of assay [3] is T1, glucocorticoid receptor (GR), untagged. Kind of assay: cell-based or functional assay.
Assay [4] addresses T2, GR NTD+DBD-Gluc2 (NTD and DBD of GR …). Kind of assay: co-immunoprecipitation with anti-Gluc antibody, immunoblot for endogenous FLI1, HEK-293 cells (FIG. 3D). The protocol: as §1

Regarding B1, the binding result in the assay with Gluc1-PU.1 [1] is on record as “binds”. Regarding B2, the binding result with FLI1, untagged was “no binding”.

For the molecule B3, in the assay with Gluc1-PU.1 [2], the binding result was “no binding”. As for B4, in assay [3], the “GRE activity, luciferase reporter (FIG. 4D)” value was 17 fold and the “GRE activity, luciferase reporter, endogenous GR with DEX (FIG. 4E)” value is roughly 2 fold. In assay [4], the binding result is given as “no binding”.
